For 1 molecule, OD450 nm results are on record in patent publication US20200207869A1.

The assay concerns the target VWF in the plasma of the mice (endogenous murine VWF) (murine) (UniProt Q8CIZ8). Nature of the assay: sandwich ELISA of mouse plasma, anti-FVII capture, anti-VWF detection, n=4 mice. For orientation: An ELISA detects its analyte on a solid surface through an enzyme-linked reagent.

B1: FVII-KB13-bv (protein)
chain: AGGVAKASGGETRDMPWKPGPHRVFVTQEEAHGVLHRRRRANAFLEELRPGSLERECKEEQCSFEEAREIFKDAERTKLFWISYSDGDQCASSPCQNGGSCKDQLQSYICFCLPAFEGRNCETHKDDQLICVNENGGCEQYCSDHTGTKRSCRCHEGYSLLADGVSCTPTVEYPCGKIPILEKRNASKPQGRIVGGKVCPKGECPQVLLLVNGAQLCGGTLINTIWVVSAAHCFDKIKNWRNLIAVLGEHDLSEHDGDEQSRRVAQVIIPSTYVPGTTNHDIALLRLHQPVVLTDHVVPLCLPERTFSERTLAFVRFSLVSGWGQLLDRGATALELMVLNVPRLMTQDCLQQSRKVGDSPNITEYMFCAGYSDGSKDSCKGDSGGPHATHYRGTWYLTGIVSWGQGCATVGHFGVYTRVSQYIEWLQKLMRSEPRPGVLLRAPFPLTPRGVRLGGGSGGGSGGGSGGGSQVQLVQSGGGLVQAGDSLRLSCAASGRTFIRYAMAWFRQAPGKEREFVAAIPQSGGRSYYADSVKGRFTISRDNAKNTVYLQMNSLKPEDTAVYSCAATSTYYGRSAYSSHSGGYDYWGQGTQVTVSSGGGSGGGSGGGSGGGSQVQLVQSGGGLVQAGDSLRLSCAASGRTFIRYAMAWFRQAPGKEREFVAAIPQSGGRSYYADSVKGRFTISRDNAKNTVYLQMNSLKPEDTAVYSCAATSTYYGRSAYSSHSGGYDYWGQGTQVTVSS
The molecule B1 returned an OD450 nm of 0.684 OD450 nm.
